Assay results taken from US20200072853A1.

Tests used:
[1] = molecular target: human proBNP(1-108), recombinant protein produced in E. coli (non-glycosylated) (human) (UniProt P16860); test: sandwich ELISA; capture hinge 76; proBNP(1-108) 20 pg/ml; detection mAb-peroxidase 0.5 ug/ml
[2] = molecular target: human proBNP(1-108), recombinant protein produced in E. coli (non-glycosylated) (human) (UniProt P16860); test: sandwich ELISA; capture hinge 76; proBNP(1-108) 2,500 pg/ml; detection mAb-peroxidase 0.5 ug/ml
[3] = molecular target: human proBNP(1-108), recombinant protein produced in E. coli (non-glycosylated) (human) (UniProt P16860); test: sandwich ELISA; capture hinge 76; proBNP(1-108) 312.5 pg/ml; detection mAb-peroxidase 0.5 ug/ml
[4] = molecular target: human proBNP(1-108), recombinant protein produced in E. coli (non-glycosylated) (human) (UniProt P16860); test: sandwich ELISA; capture hinge 76; proBNP(1-108) 39 pg/ml; detection mAb-peroxidase 0.5 ug/ml
human BNP(1-32) (human) [5] = test: sandwich ELISA; capture L21016; BNP(1-32) 156.25 pg/ml; detection mAb 0.5 ug/ml
Sequence of human BNP(1-32) (human) (peptide, as listed by the source): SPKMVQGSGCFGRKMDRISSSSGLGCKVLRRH

[6] = molecular target: human proBNP(1-108), recombinant protein produced in E. coli (non-glycosylated) (human) (UniProt P16860); test: sandwich ELISA; capture hinge 76; proBNP(1-108) 625 pg/ml; detection mAb-peroxidase 0.5 ug/ml
human BNP(1-32) (human) [7] = test: sandwich ELISA; capture L21016; BNP(1-32) 2,500 pg/ml; detection mAb 0.5 ug/ml
[8] = molecular target: human proBNP(1-108), recombinant protein produced in E. coli (non-glycosylated) (human) (UniProt P16860); test: sandwich ELISA; capture hinge 76; proBNP(1-108) 1,250 pg/ml; detection mAb-peroxidase 0.5 ug/ml
[9] = molecular target: human proBNP(1-108), recombinant protein produced in E. coli (non-glycosylated) (human) (UniProt P16860); test: sandwich ELISA; capture hinge 76; proBNP(1-108) 0 pg/ml (blank); detection mAb-peroxidase 0.5 ug/ml
human BNP(1-32) (human) [10] = test: sandwich ELISA; capture L21016; BNP(1-32) 78 pg/ml; detection mAb 0.5 ug/ml
human BNP(1-32) (human) [11] = test: sandwich ELISA; capture L21016; BNP(1-32) 0 pg/ml (blank); detection mAb 0.5 ug/ml
[12] = molecular target: human proBNP(1-108), recombinant protein produced in E. coli (non-glycosylated) (human) (UniProt P16860); test: sandwich ELISA; capture hinge 76; proBNP(1-108) 10,000 pg/ml; detection mAb-peroxidase 0.5 ug/ml
human BNP(1-32) (human) [13] = test: sandwich ELISA; capture L21016; BNP(1-32) 10,000 pg/ml; detection mAb 0.5 ug/ml
[14] = molecular target: human proBNP(1-108), recombinant protein produced in E. coli (non-glycosylated) (human) (UniProt P16860); test: sandwich ELISA; capture hinge 76; proBNP(1-108) 78 pg/ml; detection mAb-peroxidase 0.5 ug/ml
human BNP(1-32) (human) [15] = test: sandwich ELISA; capture L21016; BNP(1-32) 20 pg/ml; detection mAb 0.5 ug/ml
[16] = molecular target: human proBNP(1-108), recombinant protein produced in E. coli (non-glycosylated) (human) (UniProt P16860); test: sandwich ELISA; capture hinge 76; proBNP(1-108) 5,000 pg/ml; detection mAb-peroxidase 0.5 ug/ml
[17] = molecular target: human proBNP(1-108), recombinant protein produced in E. coli (non-glycosylated) (human) (UniProt P16860); test: sandwich ELISA; capture hinge 76; proBNP(1-108) 156.25 pg/ml; detection mAb-peroxidase 0.5 ug/ml
human BNP(1-32) (human) [18] = test: sandwich ELISA; capture L21016; BNP(1-32) 39 pg/ml; detection mAb 0.5 ug/ml
human BNP(1-32) (human) [19] = test: sandwich ELISA; capture L21016; BNP(1-32) 625 pg/ml; detection mAb 0.5 ug/ml
human BNP(1-32) (human) [20] = test: sandwich ELISA; capture L21016; BNP(1-32) 5,000 pg/ml; detection mAb 0.5 ug/ml
human BNP(1-32) (human) [21] = test: sandwich ELISA; capture L21016; BNP(1-32) 1,250 pg/ml; detection mAb 0.5 ug/ml
human BNP(1-32) (human) [22] = test: sandwich ELISA; capture L21016; BNP(1-32) 312.5 pg/ml; detection mAb 0.5 ug/ml

Sequence of human proBNP(1-108), recombinant protein produced in E. coli (non-glycosylated) (human) (P16860 27-134): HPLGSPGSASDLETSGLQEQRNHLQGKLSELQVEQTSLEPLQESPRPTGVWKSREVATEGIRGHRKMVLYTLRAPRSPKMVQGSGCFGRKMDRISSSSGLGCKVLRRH

Row | OD [1] [OD] | OD [2] [OD] | OD [3] [OD] | OD [4] [OD] | OD 490 nm (human BNP(1-32) (human) [5]) [OD] | OD [6] [OD] | OD 490 nm (human BNP(1-32) (human) [7]) [OD] | OD [8] [OD] | OD [9] [OD] | OD 490 nm (human BNP(1-32) (human) [10]) [OD] | OD 490 nm (human BNP(1-32) (human) [11]) [OD] | OD [12] [OD] | OD 490 nm (human BNP(1-32) (human) [13]) [OD] | OD [14] [OD] | OD 490 nm (human BNP(1-32) (human) [15]) [OD] | OD [16] [OD] | OD [17] [OD] | OD 490 nm (human BNP(1-32) (human) [18]) [OD] | OD 490 nm (human BNP(1-32) (human) [19]) [OD] | OD 490 nm (human BNP(1-32) (human) [20]) [OD] | Substance | other results
1 | 0.052 | 0.069 | 0.035 | 0.056 | 0.071 | 0.07 | 0.067 | 0.068 | 0.044 | 0.052 | 0.071 | 0.22 | 0.077 | 0.056 | 0.068 | 0.117 | 0.055 | 0.055 | 0.059 | 0.068 | 24C5 monoclonal antibody (HyTest, Turku, Finland) | OD 490 nm (human BNP(1-32) (human) [21]): 0.056 OD; OD 490 nm (human BNP(1-32) (human) [22]): 0.063 OD
2 | 0.028 | 0.031 | 0.028 | 0.028 | 0.032 | 0.024 | 0.035 | 0.024 | 0.024 | 0.055 | 0.022 | 0.158 | 0.048 | 0.033 | 0.034 | 0.041 | 0.027 | 0.032 | 0.029 | 0.041 | 26E2 monoclonal antibody (HyTest, Turku, Finland) | OD 490 nm (human BNP(1-32) (human) [21]): 0.031 OD; OD 490 nm (human BNP(1-32) (human) [22]): 0.027 OD
